Each block holds one binder with its values, some of them ahead of it.
Key:
[1] = target: human CD3 epsilon (CD3ε) (human) (UniProt P07766); assay: flow cytometry on human T cells
[2] = target: cynomolgus CD3-epsilon (cynomolgus) (UniProt Q95LI5); assay: flow cytometry on cynomolgus T cells
[3] = target: biotinylated 15-mer peptide corresponding to the CD3ε N-terminus (human) (UniProt P07766); assay: Luminex bead assay, 1 ug/ml antibody [Cont.]
vCD3e #p1 peptide = assay: Luminex bead assay, 1 ug/ml antibody [Cont.]
BSA alone (bovine) = BSA alone (bovine) (UniProt P02769); assay: Luminex bead assay, 1 ug/ml antibody [Cont.]
BSA alone (bovine), sequence (P02769 25-607 limits assumed): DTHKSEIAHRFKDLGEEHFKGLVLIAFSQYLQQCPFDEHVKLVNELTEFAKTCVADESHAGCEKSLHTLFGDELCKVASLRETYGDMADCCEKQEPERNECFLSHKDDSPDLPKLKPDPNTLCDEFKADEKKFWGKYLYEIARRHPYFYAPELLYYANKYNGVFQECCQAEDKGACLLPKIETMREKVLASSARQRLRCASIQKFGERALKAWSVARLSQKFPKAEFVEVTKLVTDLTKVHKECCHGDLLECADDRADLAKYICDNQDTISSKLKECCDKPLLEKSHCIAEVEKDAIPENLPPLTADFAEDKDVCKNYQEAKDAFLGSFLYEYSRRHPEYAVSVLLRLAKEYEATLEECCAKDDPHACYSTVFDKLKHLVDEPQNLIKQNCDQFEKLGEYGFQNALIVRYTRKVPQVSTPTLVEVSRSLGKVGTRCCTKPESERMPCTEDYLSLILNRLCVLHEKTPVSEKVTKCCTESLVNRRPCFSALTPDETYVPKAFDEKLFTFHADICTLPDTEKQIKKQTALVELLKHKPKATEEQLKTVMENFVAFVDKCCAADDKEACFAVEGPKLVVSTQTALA

(H2N-…-OH) vCD3e #p2-BSA = target: T1, (H2N-…-OH) vCD3e #p2-BSA; assay: Luminex bead assay, 1 ug/ml antibody [Cont.]
T1 sequence (peptide, conjugated to BSA): CPQYPGSEILWQHNDK

[4] = target: huCD3d/eCHO-E DT1331 (human) (UniProt P04234); assay: Luminex bead assay, 1 ug/ml antibody [Cont.]
huCD3d/eCHO-E DT1331 (human), sequence (P04234 22-105): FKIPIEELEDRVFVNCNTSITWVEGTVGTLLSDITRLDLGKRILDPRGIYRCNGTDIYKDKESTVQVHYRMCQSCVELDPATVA

(H2N-…-OH) vCD3e #p3-BSA = target: T2, (H2N-…-OH) vCD3e #p3-BSA; assay: Luminex bead assay, 1 ug/ml antibody [Cont.]
T2 sequence (peptide, conjugated to BSA): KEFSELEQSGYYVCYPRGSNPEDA

[5] = target: cynomolgus CD3-epsilon (cynomolgus) (UniProt Q95LI5); assay: Luminex bead assay, 1 ug/ml antibody; recombinant cyno CD3 (sinobiologicals) on beads [Cont.]

cynomolgus CD3-epsilon (cynomolgus), sequence (Q95LI5 22-198): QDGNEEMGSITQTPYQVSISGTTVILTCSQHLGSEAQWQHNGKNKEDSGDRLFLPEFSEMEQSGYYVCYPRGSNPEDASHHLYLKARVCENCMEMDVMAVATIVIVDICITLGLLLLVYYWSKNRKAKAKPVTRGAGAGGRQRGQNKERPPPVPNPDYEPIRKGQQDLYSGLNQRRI

EC50 (read off the curve) [1]: 0.2 nM
EC50 (read off the curve) [2]: 0.3 nM
Luminex signal [3]: 6.5
Luminex signal (vCD3e #p1 peptide): 17900
Luminex signal (BSA alone (bovine)): 398
Luminex signal ((H2N-…-OH) vCD3e #p2-BSA): 184
Luminex signal [4]: 22100
Luminex signal ((H2N-…-OH) vCD3e #p3-BSA): 439
Luminex signal [5]: 17200
B1: SP34-2 (antibody, from a related filing, V domains shown)
VH: EVQLVESGGGLVQPKGSLKLSCAASGFTFNTYAMNWVRQAPGKGLEWVARIRSKYNNYATYYADSVKDRFTISRDDSQSILYLQMNNLKTEDTAMYYCVRHGNFGNSYVSWFAYWGQGTLVTVSA
VL: QAVVTQESALTTSPGETVTLTCRSSTGAVTTSNYANWVQEKPDHLFTGLIGGTNKRAPGVPARFSGSLIGDKAALTITGAQTEDEAIYFCALWYSNLWVFGGGTKLTVL

Luminex signal ((H2N-…-OH) vCD3e #p2-BSA): 238
B2: 6d59 (antibody, V domains shown)
VH: QVHLVESGGGVVQPGRSLRLSCAASGFKFRSYGMHWVRQAPGKGLEWVAIIWYDGSKRYYADSVKGRFTISRDNSKNTLYLQMSSLRAEDTAVYYCARDLITGTTDYWGQGTLVTVSS
VL: DVVMTQSPLSLPVTLGQPASISCRSSRSLVYSDGNTHLIWFQQRPGQSPRRLIYRVSNRVSGVPDRFSGSGSGTDFTLKISRVEAEDVGVYYCLQGAHWPYTFGQGTKLEIKR
